The test addresses T1, C3aR R161A (human, UniProt Q16581 1-482, R161^ECL2A).
T1 sequence: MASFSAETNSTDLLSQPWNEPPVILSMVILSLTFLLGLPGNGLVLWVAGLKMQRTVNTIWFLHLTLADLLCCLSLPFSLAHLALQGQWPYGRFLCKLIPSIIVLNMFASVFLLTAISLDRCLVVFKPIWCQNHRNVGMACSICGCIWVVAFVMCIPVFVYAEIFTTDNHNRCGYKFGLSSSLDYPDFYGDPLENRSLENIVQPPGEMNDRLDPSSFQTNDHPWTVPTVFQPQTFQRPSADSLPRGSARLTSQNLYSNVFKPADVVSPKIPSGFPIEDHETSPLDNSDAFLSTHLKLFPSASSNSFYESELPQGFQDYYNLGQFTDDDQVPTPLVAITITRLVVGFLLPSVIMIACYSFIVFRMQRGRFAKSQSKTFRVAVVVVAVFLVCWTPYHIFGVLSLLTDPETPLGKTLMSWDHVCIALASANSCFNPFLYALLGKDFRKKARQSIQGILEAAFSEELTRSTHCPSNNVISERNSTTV
Put plainly: cell-based or functional assay.

We go through one molecule from article doi:10.1101/2023.01.18.524551 (bioRxiv, 2023).

Bounds are passed on as bounds.

B1: His6-SUMOstar-C3a (recombinant human C3a, residues 1-77) (ligand)
chain: not shown
Turning to B1, the “decrease of the potency of C3a against the wild type (GloSensor cAMP assay)” value is > 100 fold.
